Experimental data taken from patent US20240199740A1 (Ablynx, published 2024).

Columns and labels:
human CD123 [1] = target: T1, human CD123 (human, UniProt P26951 19-378); assay: cell-based or functional assay
human CD123 [2] = target: T1, human CD123; assay: cell-based or functional assay; remark: listed apart in the source
human CD123 [3] = target: T1, human CD123; assay: cell-based or functional assay; remark: listed apart in the source
human CD123 [4] = target: T1, human CD123; assay: cell-based or functional assay; remark: listed apart in the source
[5] = target: T2, human CD123 expressed on cells (human, UniProt P26951 19-378); assay: cell-based or functional assay
[6] = target: cynomolgus TCR/CD3 expressed on cells (cynomolgus); assay: cell-based or functional assay
[7] = target: cynomolgus TCR/CD3 expressed on cells (cynomolgus); assay: cell-based or functional assay; remark: listed apart in the source
[8] = target: T3, cynomolgus CD123 expressed on HEK Flp-In cells (cynomolgus); assay: flow cytometry competition, HEK Flp-In cyCD123 cells, competitor A0110056A10-Alexa647 (0.9 nM)
T3 construct: EHH61867.1; also called cyCD123; cyno CD123
T3 chain: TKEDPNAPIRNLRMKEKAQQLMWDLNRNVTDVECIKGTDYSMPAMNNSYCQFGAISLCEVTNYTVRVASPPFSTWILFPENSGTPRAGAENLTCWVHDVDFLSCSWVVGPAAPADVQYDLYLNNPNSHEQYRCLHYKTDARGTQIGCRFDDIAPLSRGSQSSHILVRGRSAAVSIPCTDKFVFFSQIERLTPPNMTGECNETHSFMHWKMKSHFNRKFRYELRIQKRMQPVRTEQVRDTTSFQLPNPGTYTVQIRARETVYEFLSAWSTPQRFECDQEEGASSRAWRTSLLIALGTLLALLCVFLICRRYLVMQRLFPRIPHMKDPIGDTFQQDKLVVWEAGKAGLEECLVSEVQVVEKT
Experimental: (§1) Next to binding to the MOLM-13 and CHO Flp-In huCD123 cells, binding to cyno CD123 transfected HEK Flp-In cells was assessed.

[9] = target: T3, cynomolgus CD123 expressed on HEK …; assay: cell-based or functional assay
[10] = target: T4, cynomolgus TCR/CD3 expressed on cells (cynomolgus); assay: flow cytometry competition, HSC-F cells, competitor T017000099 (500 nM)
T4 construct: whole, on cells; Native complex with CD3 chains; the cell type is named under assay or readout; also called cyno TCR/CD3; CD3/TCR expressed on HSC-F
Experimental: Cells were washed and incubated with Propidium Iodine to stain for dead cells, which are then removed during the gating procedure. The cells were then analysed via a BD FACSArray. First a P1 population which represented more than 80% of the total cell population was selected based on FSC-SSC distribution. In this gate, 10000 cells were counted during acquisition. From this population the PI+ cells (dead cells) were excluded and the median APC value was calculated.

[11] = target: T4, cynomolgus TCR/CD3 expressed on cells; assay: cell-based or functional assay; remark: listed apart in the source
[12] = target: T2, human CD123 expressed on cells; assay: flow cytometry competition, CHO Flp-In huCD123 cells, competitor A0110056A10-Alexa647 (0.9 nM)
Experimental: as §1

[13] = target: T2, human CD123 expressed on cells; assay: cell-based or functional assay; remark: listed apart in the source
[14] = target: T2, human CD123 expressed on cells; assay: cell-based or functional assay; remark: listed apart in the source
[15] = target: T2, human CD123 expressed on cells; assay: cell-based or functional assay; remark: listed apart in the source
[16] = target: T2, human CD123 expressed on cells; assay: cell-based or functional assay; remark: listed apart in the source
[17] = target: T2, human CD123 expressed on cells; assay: cell-based or functional assay; remark: listed apart in the source
[18] = target: T2, human CD123 expressed on cells; assay: flow cytometry competition, MOLM-13 cells, competitor A0110056A10-Alexa647 (0.4 nM)
Experimental: as §1

[19] = target: T2, human CD123 expressed on cells; assay: cell-based or functional assay; remark: listed apart in the source
[20] = target: T2, human CD123 expressed on cells; assay: cell-based or functional assay; remark: listed apart in the source
[21] = target: T2, human CD123 expressed on cells; assay: cell-based or functional assay; remark: listed apart in the source
[22] = target: T5, human TCR/CD3 on purified primary human T cells (human, UniProt P01848 1-140; P01850 1-176); assay: flow cytometry, purified primary human T cells
T5 construct: whole, on cells; Native TCR alpha/beta with the CD3 chains on T cells isolated from buffy coat blood; also called purified primary T cells
Experimental: Dose-dependent binding of the purified monovalent anti-TCR Nanobodies to human TCRα/β (2XN9)/CD3 expressed on CHO-K1 cells and to purified primary human T cells was evaluated by flow cytometry. In brief, cells were harvested and transferred to a V-bottom 96-well plate (1×10⁵ cells/well) and serial dilutions of Nanobodies (starting from 1 pM) were allowed to associate for 30 minutes at 4° C. in FACS buffer. […] After incubation, cells were washed 3 times with FACS Buffer. Subsequently, cells were resuspended in FACS buffer supplemented with 5 nM TOPRO3 (Molecular Probes, T3605) to distinguish live from dead cells, which are removed during the gating procedure. Cells were analysed using a FACS Array flow cytometer (BD Biosciences) and Flowing Software. First a P1 population which represented more than 80% of the total cell population was selected based on FSC-SSC distribution. In this gate, 10000 cells were counted during acquisition. From this population the TOPRO+ cells (dead cells) were excluded and the median PE value was calculated.

[23] = target: T6, soluble recombinant cynomolgus TCR α/β-zipper protein (cynomolgus/rhesus monkey); assay: ELISA, directly coated soluble cynomolgus TCR-zipper protein
T6 construct: Made in house in CHOK1SV cells; also called recombinant cynomolgus soluble TCRα/β-zipper protein; cynomolgus/rhesus monkey TCR α/β; not shown: the zipper protein (O'Shea et al. 1993) fused C-terminally to each chain, and any linker to it
T6 alpha: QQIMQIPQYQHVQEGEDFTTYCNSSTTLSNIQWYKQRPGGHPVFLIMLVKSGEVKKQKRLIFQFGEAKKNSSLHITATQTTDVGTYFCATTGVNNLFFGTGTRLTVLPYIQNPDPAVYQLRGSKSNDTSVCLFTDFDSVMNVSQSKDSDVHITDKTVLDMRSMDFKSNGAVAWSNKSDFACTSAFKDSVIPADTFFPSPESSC
T6 beta: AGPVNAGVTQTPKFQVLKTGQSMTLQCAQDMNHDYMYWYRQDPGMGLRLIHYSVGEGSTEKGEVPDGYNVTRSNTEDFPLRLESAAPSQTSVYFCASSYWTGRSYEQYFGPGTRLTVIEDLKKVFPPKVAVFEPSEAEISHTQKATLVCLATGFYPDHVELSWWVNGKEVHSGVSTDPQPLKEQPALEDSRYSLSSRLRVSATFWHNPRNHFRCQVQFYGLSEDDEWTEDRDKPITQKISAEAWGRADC
Experimental: Quality of the TCR α/β zipper proteins was assessed in an ELISA binding assay. […] After an overnight incubation, plates were washed and blocked with PBS+1% casein for 1 h at room temperature. […] The reaction was stopped with 2M H₂SO₄ and the dose dependent binding was determined by measuring the OD at 450 nm using the Tecan sunrise 4 (FIG. 2).

[24] = target: T7, human CD3 expressed on HEK293H cells (human, UniProt P04234 22-171; P09693 23-182; P07766 23-207; P20963 22-164); assay: flow cytometry, HEK293H human CD3 cells
T7 construct: also called HEK293H CD3; HEK293H human CD3
Source text: The parental HEK293H cell line was included as TCR/CD3 negative cell line.

[25] = target: T6, soluble recombinant cynomolgus TCR …; assay: BLI (Octet RED384), cynomolgus TCR-zipper protein immobilized
Experimental: Binding affinities were measured using Bio-Layer Interferometry (BLI) on an Octet RED384 instrument (Pall ForteBio Corp.). […] For kinetic analysis, sensors were first dipped into running buffer (10 mM Hepes, 150 mM NaCl, 0.05% p20, pH7.4 from GE Healthcare Life Sciences) to determine baseline setting. […] Affinity constants (KD) were calculated applying a 1:1 interaction model using the ForteBio Data Analysis software.

T1 sequence (P26951 19-378 limits assumed): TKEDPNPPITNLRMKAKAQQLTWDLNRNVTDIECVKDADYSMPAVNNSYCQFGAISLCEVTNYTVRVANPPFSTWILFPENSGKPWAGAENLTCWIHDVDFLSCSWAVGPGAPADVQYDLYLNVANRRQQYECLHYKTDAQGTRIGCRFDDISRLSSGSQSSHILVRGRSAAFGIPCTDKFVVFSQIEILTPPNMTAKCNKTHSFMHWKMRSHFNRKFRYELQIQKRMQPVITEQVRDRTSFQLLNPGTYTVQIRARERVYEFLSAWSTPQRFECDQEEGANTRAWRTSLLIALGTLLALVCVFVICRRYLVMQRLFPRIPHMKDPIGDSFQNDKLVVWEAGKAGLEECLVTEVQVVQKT
T2 sequence (P26951 19-378 limits assumed): as above
T5 sequence (P01848 whole entry, chain 1 of 2): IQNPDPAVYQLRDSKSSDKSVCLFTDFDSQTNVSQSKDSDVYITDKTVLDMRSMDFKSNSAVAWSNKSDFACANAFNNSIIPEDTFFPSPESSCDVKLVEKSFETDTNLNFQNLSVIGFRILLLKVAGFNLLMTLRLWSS
T5 sequence (P01850 whole entry, chain 2 of 2): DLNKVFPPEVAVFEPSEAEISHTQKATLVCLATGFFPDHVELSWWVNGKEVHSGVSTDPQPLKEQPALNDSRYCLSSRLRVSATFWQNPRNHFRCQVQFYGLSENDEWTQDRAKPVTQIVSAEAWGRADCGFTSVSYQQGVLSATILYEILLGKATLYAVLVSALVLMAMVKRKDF
T7 sequence (P04234 22-171 limits assumed, chain 1 of 4): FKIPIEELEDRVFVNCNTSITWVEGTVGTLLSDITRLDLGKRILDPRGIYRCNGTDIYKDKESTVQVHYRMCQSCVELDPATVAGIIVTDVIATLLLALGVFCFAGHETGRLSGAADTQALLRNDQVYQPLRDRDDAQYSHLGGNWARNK
T7 sequence (P09693 23-182 limits assumed, chain 2 of 4): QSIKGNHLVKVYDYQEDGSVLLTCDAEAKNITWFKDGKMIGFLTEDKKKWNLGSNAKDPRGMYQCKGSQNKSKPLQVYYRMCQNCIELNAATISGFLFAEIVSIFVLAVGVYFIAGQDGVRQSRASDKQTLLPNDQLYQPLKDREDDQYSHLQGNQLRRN
T7 sequence (P07766 23-207 limits assumed, chain 3 of 4): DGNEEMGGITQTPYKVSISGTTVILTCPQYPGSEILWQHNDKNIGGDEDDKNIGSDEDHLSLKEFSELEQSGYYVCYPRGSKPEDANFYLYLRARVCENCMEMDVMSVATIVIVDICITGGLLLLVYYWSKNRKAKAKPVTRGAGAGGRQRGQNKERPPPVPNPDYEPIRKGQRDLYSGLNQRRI
T7 sequence (P20963 22-164 limits assumed, chain 4 of 4): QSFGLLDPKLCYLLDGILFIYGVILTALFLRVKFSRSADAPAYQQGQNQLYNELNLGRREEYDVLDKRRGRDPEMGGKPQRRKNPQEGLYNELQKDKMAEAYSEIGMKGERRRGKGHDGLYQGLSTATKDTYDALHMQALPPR

B1: T017000139 (bispecific antibody)
chain: DVQLVESGGGLVQPGGSLRLSCVASGDVHKINFLGWYRQAPGKEREKVAHISIGDQTDYADSAKGRFTISRDESKNMVYLQMNSLKPEDTAVYFCRAFSRIYPYDYWGQGTLVTVSSGGGGSGGGGSGGGGSGGGGSGGGGSGGGGSGGGGSEVQLVESGGGLVQAGGPLRLSCAASGRTFSSYVMGWFRQAPGKEREFVAAIYWSNGKTQYTDSVKGRFTISGDNAKNTVYLQMNSLNPEDTAVYYCVADKDETGFRTLPIAYDYWGQGTLVTVSSGGGGSGGGGSGGGGSGGGGSGGGGSGGGGSGGGGSEVQLVESGGGLVQAGGSLRLSCAASGITSKINDMGWYRQTPGNYREWVASITATGTTNYRDSVKGRFTISRDNAKSTVYLQMNSLKPEDTTVYYCNTFPPISNFWGQGTLVTVSSA
Human CD123 [1]
  EC50 (M), human IFN-γ secretion during redirected human T cell mediated killing of CD123 positive MOLM-13 cells (ELISA): 3.4e-10 M
Human CD123 [2]
  EC50 (M), redirected cynomolgus T cell mediated killing of MOLM-13 cells, flow cytometry, E:T 10:1: 2.9e-11 M
  EC50 (M), redirected human T cell mediated killing of MOLM-13 cells, flow cytometry, E:T 10:1: 2e-11 M
Human CD123 [3]
  % lysis, redirected cynomolgus T cell mediated killing of KG1a cells, flow cytometry, E:T 10:1: 34%
  % lysis, redirected human T cell mediated killing of KG1a cells, flow cytometry, E:T 10:1: 67%
  EC50 (M), redirected cynomolgus T cell mediated killing of KG1a cells, flow cytometry, E:T 10:1: 1.7e-11 M
  EC50 (M), redirected human T cell mediated killing of KG1a cells, flow cytometry, E:T 10:1: 8.1e-11 M
Human CD123 [4]
  EC50 (M), human IL-6 secretion during redirected human T cell mediated killing of CD123 positive MOLM-13 cells (ELISA): 2.3e-11 M

B2: T017000139 (bispecific antibody)
chain: DVQLVESGGGLVQPGGSLRLSCVASGDVHKINFLGWYRQAPGKEREKVAHISIGDQTDYADSAKGRFTISRDESKNMVYLQMNSLKPEDTAVYFCRAFSRIYPYDYWGQGTLVTVSSGGGGSGGGGSGGGGSGGGGSGGGGSGGGGSGGGGSEVQLVESGGGLVQAGGPLRLSCAASGRTFSSYVMGWFRQAPGKEREFVAAIYWSNGKTQYTDSVKGRFTISGDNAKNTVYLQMNSLNPEDTAVYYCVADKDETGFRTLPIAYDYWGQGTLVTVSSGGGGSGGGGSGGGGSGGGGSGGGGSGGGGSGGGGSEVQLVESGGGLVQAGGSLRLSCAASGITSKINDMGWYRQTPGNYREWVASITATGTTNYRDSVKGRFTISRDNAKSTVYLQMNSLKPEDTTVYYCNTFPPISNFWGQGTLVTVSSA
notes: Multispecific Nanobody polypeptide expressed in Pichia; also called T013700139
[5]
  % lysis, redirected human T cell mediated killing of KG1a cells, flow cytometry, E:T 10:1: 27%
  EC50 (M), redirected human T cell mediated killing of KG1a cells, flow cytometry, E:T 10:1: 1.1e-10 M
[6]
  % lysis, redirected cyno T cell mediated killing of KG1a cells, flow cytometry: 42%
  EC50 (M), redirected cyno T cell mediated killing of KG1a cells, flow cytometry: 2.6e-11 M
[7]
  % lysis, redirected cyno T cell mediated killing of MOLM-13 cells, flow cytometry, E:T 10:1: 55%
  EC50 (M), redirected cyno T cell mediated killing of MOLM-13 cells, flow cytometry, E:T 10:1: 1.1e-11 M
[8]
  IC50: 11 nM
[9]
  IC50 (M), redirected cynomolgus T cell mediated killing of cynomolgus CD123 transfected HEK Flp-In cells, xCELLigence, E:T 15:1, 80 h: 1.1e-11 M
[10]
  IC50: 640 nM
[11]
  EC50 (M) of CD25 upregulation on cynomolgus T cells during redirected killing of MOLM-13 cells, 72 h: 6e-11 M
[12]
  IC50: 3.3 nM
[13]
  EC50 (M), human IL-6 secretion during human T cell mediated killing of MOLM-13 cells: 2.3e-11 M
[14]
  EC50 (M), redirected cynomolgus T cell mediated killing of CD123 positive MOLM-13 cells, flow cytometry, Experiment 1: 6e-11 M
  EC50 (M), redirected cynomolgus T cell mediated killing of CD123 positive MOLM-13 cells, flow cytometry, Experiment 2: 3.1e-11 M
  EC50 (M), redirected human T cell mediated killing of CD123 positive MOLM-13 cells, flow cytometry, Experiment 2: 3e-11 M
[15]
  EC50 (M), human IL-6 secretion during human T cell mediated killing of CD123 transfected adherent target cells: 4.8e-10 M
[16]
  IC50 (M), redirected human T cell mediated killing of human CD123 transfected CHO Flp-In cells, xCELLigence, E:T 15:1, 50 h: 2.4e-10 M
[17]
  EC50 (M), redirected cynomolgus T cell mediated killing of CD123 positive KG1a cells, flow cytometry, E:T 10:1: 1.7e-11 M
  EC50 (M), redirected human T cell mediated killing of CD123 positive KG1a cells, flow cytometry, E:T 10:1: 8.1e-11 M
[18]
  IC50: 3.7 nM
[19]
  EC50 (M), IFN-γ secretion by cynomolgus T cells during killing of CD123 transfected adherent target cells: 2.3e-09 M
  EC50 (M), IFN-γ secretion by human T cells during killing of CD123 transfected adherent target cells: 1e-09 M
[20]
  % lysis, redirected human T cell mediated killing of MOLM-13 cells, flow cytometry, E:T 10:1: 29%
  EC50 (M), redirected human T cell mediated killing of MOLM-13 cells, flow cytometry, E:T 10:1: 2e-11 M
[21]
  EC50 (M), human IFN-γ secretion during human T cell mediated killing of KG1a cells: 3.2e-11 M
  EC50 (M), human IFN-γ secretion during human T cell mediated killing of MOLM-13 cells: 3.4e-10 M

B3: T0170055A02 (VHH)
VHH: EVQLVESGGGLVQPGGSLRLSCAASGDVHKINILGWYRQAPAKEREMVAHITIGDATDYADSAKGRFTISRDEAKNMVYLQMNSLKPEDTAVYFCRAYSRIYPYNYWGQGTLVTVSS
notes: also called T0170PMP055A02; T01700055A02; not shown: C-terminal triple Flag, His6 tag
[22]
  EC50: 91 nM
[23]
  EC50: 160 nM
[24]
  binding result: no binding (tested: 1e-6 M)
[25]
  Kd: 210 nM

B4: T0170056G05 (VHH)
VHH: EVQLVESGGGLVQPGGSLRLSCVASGDVHKINFLGWYRQAPGKEREKVAHISIGDQTDYADSAKGRFTISRDESKNMVYLQMNSLKPEDTAVYFCRAFSRIYPYDYWGQGTLVTVSS
notes: Monovalent anti-TCR Nanobody; also called T0170PMP056G05; T01700056G05; not shown: C-terminal triple Flag, His6 tag
[22]
  EC50: 91 nM
[23]
  EC50: 77 nM
[24]
  binding result: no binding (tested: 1e-6 M)
[25]
  Kd: 150 nM
